Measured values: the supplement of paper PMC6755084

B1: F1*; the commonest letter at each place (parent)
chain: GAGACCGCAACTGAAAAGTTGTTATCACTTGTCGTAAGACACTTTGGATGGGTTGAAGTTCTGCACGTAGAAGCAAAAGGC

Variants of: B1
Test: fraction ligated after 30 min (ligated reads / total reads); higher = more ligase activity
Conditions: with F1*sub RNA substrate (template-directed ligation), 42 °C
In short: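 Ligase ribozyme variants were made from oligo-pool templates by PCR amplification, T7 transcription and gel purification. After gel separation, ligated and unligated bands were reverse transcribed with barcoded primers and sequenced on a MiSeq, with core bases filtered at quality ≥20. The fraction ligated for each variant was the number of ligated reads divided by total reads.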

| Variant | fraction ligated |
| --- | --- |
| GAGACCGCAACTGAAAAGTTGTTATCACTTGTCGTACGACACTTTGGATGGGTTGGAGTTCTGCACGTAGAAGCAAAAGGC [A37C A56G] | 0.784 |
| GAGACCGCAACTGAAAAGTTGTTATCACTTGTCGTACGACACTTTGGATGGGTTGCAGTTCTGCACGTAGAAGCAAAAGGC [A37C A56C] | 0.818 |
| GAGACCGCAACTGAAAAGTTGTTATCACTTGTCGTACGACACTTTGGATGGGTTGTAGTTCTGCACGTAGAAGCAAAAGGC [A37C A56T] | 0.804 |
| GAGACCGCAACTGAAAAGTTGTTATCACTTGTCGTTAGACACTTTGGTTGGGTTGAAGTTCTGCACGTAGAAGCAAAAGGC [A36T A48T] | 0.792 |
| GAGACCGCAACTGAAAAGTTGTTATCACTTGTCGTTAGACACTTCGGATGGGTTGAAGTTCTGCACGTAGAAGCAAAAGGC [A36T T45C] | 0.783 |
| GAGACCGCAACTGAAAAGTTGTTATCACTTGTCGTTAGACACTTGGGATGGGTTGAAGTTCTGCACGTAGAAGCAAAAGGC [A36T T45G] | 0.385 |
| GAGACCGCAACTGAAAAGTTGTTATCACTTGTCGTTAGACACTTAGGATGGGTTGAAGTTCTGCACGTAGAAGCAAAAGGC [A36T T45A] | 0.778 |
| GAGACCGCAACTGAAAAGTTGTTATCACTTGTCGTACGACACTTTGGATGGGTTGAAGTTCTGCACGTAGAAGCAAAAGGC [A37C] | 0.849 |
| GAGACCGCAACTGAAAAGTTGTTATCACTTGTCGTACGACACTTTGGATGGGTTGAGGTTCTGCACGTAGAAGCAAAAGGC [A37C A57G] | 0.838 |
| GAGACCGCAACTGAAAAGTTGTTATCACTTGTCGTACGACACTTTGGATGGGTTGATGTTCTGCACGTAGAAGCAAAAGGC [A37C A57T] | 0.831 |
| GAGACCGCAACTGAAAAGTTGTTATCACTTGTCGTACGACACTTTGGATGGGTTGACGTTCTGCACGTAGAAGCAAAAGGC [A37C A57C] | 0.819 |
| GAGACCGCAACTGAAAAGTTGTTATCACTTGTCGTTAGATACTTTGGATGGGTTGAAGTTCTGCACGTAGAAGCAAAAGGC [A36T C40T] | 0.83 |
| GAGACCGCAACTGAAAAGTTGTTATCACTTGTCGTTAGAGACTTTGGATGGGTTGAAGTTCTGCACGTAGAAGCAAAAGGC [A36T C40G] | 0.824 |
| GAGACCGCAACTGAAAAGTTGTTATCACTTGTCGTTAGAAACTTTGGATGGGTTGAAGTTCTGCACGTAGAAGCAAAAGGC [A36T C40A] | 0.823 |
| GAGACCGCAACTGAAAAGTTGTTATCACTTGTCGTACGACATTTTGGATGGGTTGAAGTTCTGCACGTAGAAGCAAAAGGC [A37C C42T] | 0.857 |
| GAGACCGCAACTGAAAAGTTGTTATCACTTGTCGTACGACAGTTTGGATGGGTTGAAGTTCTGCACGTAGAAGCAAAAGGC [A37C C42G] | 0.833 |
| GAGACCGCAACTGAAAAGTTGTTATCACTTGTCGTACGACAATTTGGATGGGTTGAAGTTCTGCACGTAGAAGCAAAAGGC [A37C C42A] | 0.849 |

| Variant | fraction ligated |
| --- | --- |
| GAGACCGCAACTGAAAAGTTGTTATCACTTGTCGTACGACACTTTGGTTGGGTTGAAGTTCTGCACGTAGAAGCAAAAGGC [A37C A48T] | 0.775 |
| GAGACCGCAACTGAAAAGTTGTTATCACTTGTCGTACGACACTTTGGGTGGGTTGAAGTTCTGCACGTAGAAGCAAAAGGC [A37C A48G] | 0.795 |
| GAGACCGCAACTGAAAAGTTGTTATCACTTGTCGTACGACACTTTGGCTGGGTTGAAGTTCTGCACGTAGAAGCAAAAGGC [A37C A48C] | 0.792 |
| GAGACCGCAACTGAAAAGTTGTTATCACTTGTCGTACAACACTTTGGATGGGTTGAAGTTCTGCACGTAGAAGCAAAAGGC [A37C G38A] | 0.836 |
| GAGACCGCAACTGAAAAGTTGTTATCACTTGTCGTACCACACTTTGGATGGGTTGAAGTTCTGCACGTAGAAGCAAAAGGC [A37C G38C] | 0.818 |
| GAGACCGCAACTGAAAAGTTGTTATCACTTGTCGTACTACACTTTGGATGGGTTGAAGTTCTGCACGTAGAAGCAAAAGGC [A37C G38T] | 0.844 |
| GAGACCGCAACTGAAAAGTTGTTATCACTTGTCGTACGAAACTTTGGATGGGTTGAAGTTCTGCACGTAGAAGCAAAAGGC [A37C C40A] | 0.82 |
| GAGACCGCAACTGAAAAGTTGTTATCACTTGTCGTACGAGACTTTGGATGGGTTGAAGTTCTGCACGTAGAAGCAAAAGGC [A37C C40G] | 0.809 |
| GAGACCGCAACTGAAAAGTTGTTATCACTTGTCGTACGATACTTTGGATGGGTTGAAGTTCTGCACGTAGAAGCAAAAGGC [A37C C40T] | 0.858 |
| GAGACCGCAACTGAAAAGTTGTTATCACTTGTCGTTAGACACTCTGGATGGGTTGAAGTTCTGCACGTAGAAGCAAAAGGC [A36T T44C] | 0.82 |
| GAGACCGCAACTGAAAAGTTGTTATCACTTGTCGTTAGACACTGTGGATGGGTTGAAGTTCTGCACGTAGAAGCAAAAGGC [A36T T44G] | 0.847 |
| GAGACCGCAACTGAAAAGTTGTTATCACTTGTCGTTAGACACTATGGATGGGTTGAAGTTCTGCACGTAGAAGCAAAAGGC [A36T T44A] | 0.844 |
| GAGACCGCAACTGAAAAGTTGTTATCACTTGTCGTACGACACTTTAGATGGGTTGAAGTTCTGCACGTAGAAGCAAAAGGC [A37C G46A] | 0.78 |
| GAGACCGCAACTGAAAAGTTGTTATCACTTGTCGTACGACACTTTTGATGGGTTGAAGTTCTGCACGTAGAAGCAAAAGGC [A37C G46T] | 0.785 |
| GAGACCGCAACTGAAAAGTTGTTATCACTTGTCGTACGACACTTTCGATGGGTTGAAGTTCTGCACGTAGAAGCAAAAGGC [A37C G46C] | 0.795 |
| GAGACCGCAACTGAAAAGTTGTTATCACTTGTCGTTAGACACTTTGGATGGGTTTAAGTTCTGCACGTAGAAGCAAAAGGC [A36T G55T] | 0.836 |
| GAGACCGCAACTGAAAAGTTGTTATCACTTGTCGTTAGACACTTTGGATGGGTTCAAGTTCTGCACGTAGAAGCAAAAGGC [A36T G55C] | 0.817 |
